Biological target: biotinylated pro-LC3B (residues 1-125) (human) (UniProt Q9GZQ8)
Test: SPR; biotinylated LC3B constructs immobilised on NeutrAvidin-coated CM5 chips; ATG4b proteins flowed over, 0.2 nM~20 uM; 1X PBS, 0.5 mM TCEP, 0.05% Tween 20, 20 °C; Biacore 4000; 1:1 binding model

ATG4b WT (full-length ATG4b) (from UniProt Q9Y4P1 1-393) (enzyme)
Kd: 321 nM
